Data reported in publication PMC10439943, “SCF^RMF mediates degradation of the meiosis-specific recombinase DMC1” (Nature Communications, 2023).
Changes are numbered by the printed parent chain. Values belong to the binder of their own block, whether it stands above or below them.

Legend:
Assay in all cases: pull-down; 2 µg of each GST-, HIS- or MBP-tagged protein mixed in 50 mM Tris-HCl pH 7.4, 150 mM NaCl, 25 mM imidazole, 0.5% NP-40, 4 °C 4 h; HIS-tagged protein captured on Ni-NTA HIS Bind Resin; western blot
Details in all cases: both partners purified
[1] = target: T1, MBP-RMF1 (Arabidopsis thaliana, UniProt Q9M365 1-359)
T1 construct: RMF1, F-box protein, Arabidopsis thaliana, AGI AT3G61730; CDS cloned into pMAL-c5X; also called AT3G61730; source: E. coli Rosetta (DE3) or BL21 (DE3) pLysS, purified (Amylose Resin); not shown: MBP, N-terminal, kept
T1 sequence (looked up): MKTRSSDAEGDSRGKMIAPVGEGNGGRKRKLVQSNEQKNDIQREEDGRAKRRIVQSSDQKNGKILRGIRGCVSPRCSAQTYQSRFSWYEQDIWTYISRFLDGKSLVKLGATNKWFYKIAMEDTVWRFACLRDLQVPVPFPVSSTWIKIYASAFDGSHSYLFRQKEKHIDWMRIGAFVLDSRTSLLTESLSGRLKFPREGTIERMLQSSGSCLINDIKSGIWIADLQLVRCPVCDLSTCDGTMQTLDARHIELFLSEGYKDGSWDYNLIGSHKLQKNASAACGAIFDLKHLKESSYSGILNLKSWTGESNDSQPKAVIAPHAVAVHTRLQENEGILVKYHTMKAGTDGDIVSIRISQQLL

[2] = target: T2, MBP-RMF2 (Arabidopsis thaliana, UniProt Q9FGB8 1-355)
T2 construct: RMF2, F-box protein, Arabidopsis thaliana, AGI AT5G36000; CDS cloned into pMAL-c5X; also called AT5G36000; source: E. coli Rosetta (DE3) or BL21 (DE3) pLysS, purified (Amylose Resin); not shown: MBP, N-terminal, kept
T2 sequence (looked up): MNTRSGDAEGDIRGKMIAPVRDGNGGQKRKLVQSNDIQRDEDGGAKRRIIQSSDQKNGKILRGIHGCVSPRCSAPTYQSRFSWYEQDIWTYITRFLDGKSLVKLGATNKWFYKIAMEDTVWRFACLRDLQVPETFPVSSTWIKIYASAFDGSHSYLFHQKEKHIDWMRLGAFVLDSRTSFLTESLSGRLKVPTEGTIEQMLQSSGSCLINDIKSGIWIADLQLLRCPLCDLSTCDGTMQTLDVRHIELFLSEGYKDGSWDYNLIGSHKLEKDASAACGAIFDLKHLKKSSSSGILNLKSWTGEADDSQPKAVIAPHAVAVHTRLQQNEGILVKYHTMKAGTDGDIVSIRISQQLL

[3] = target: T3, SUMO-HIS-RMF2 (Arabidopsis thaliana, UniProt Q9FGB8 1-355)
T3 construct: RMF2, F-box protein, Arabidopsis thaliana, AGI AT5G36000; CDS cloned into pSUMO (on pET28a); also called AT5G36000; not shown: SUMO, N-terminal, kept; HIS, N-terminal, kept
T3 sequence (looked up): T2 sequence (looked up)

[4] = target: T4, SUMO-HIS-RMF1 (Arabidopsis thaliana, UniProt Q9M365 1-359)
T4 construct: RMF1, F-box protein, Arabidopsis thaliana, AGI AT3G61730; CDS cloned into pSUMO (on pET28a); also called AT3G61730; not shown: SUMO, N-terminal, kept; HIS, N-terminal, kept
T4 sequence (looked up): T1 sequence (looked up)

binding result [1]: binds
binding result [2]: binds
B1: SUMO-HIS-DMC1 (natural protein, Arabidopsis thaliana, UniProt Q39009 1-344, looked up)
chain: MMASLKAEETSQMQLVEREENDEDEDLFEMIDKLIAQGINAGDVKKLQEAGIHTCNGLMMHTKKNLTGIKGLSEAKVDKICEAAEKIVNFGYMTGSDALIKRKSVVKITTGCQALDDLLGGGIETSAITEAFGEFRSGKTQLAHTLCVTTQLPTNMKGGNGKVAYIDTEGTFRPDRIVPIAERFGMDPGAVLDNIIYARAYTYEHQYNLLLGLAAKMSEEPFRILIVDSIIALFRVDFTGRGELADRQQKLAQMLSRLIKIAEEFNVAVYMTNQVIADPGGGMFISDPKKPAGGHVLAHAATIRLLFRKGKGDTRVCKVYDAPNLAEAEASFQITQGGIADAKD
notes: DMC1, meiosis-specific RecA-family recombinase, Arabidopsis thaliana, AGI At3G22880; CDS cloned into pSUMO (on pET28a); also called At3G22880; not shown: SUMO, N-terminal, kept; HIS, N-terminal, kept

binding result [1]: binds
binding result [2]: binds
B2: SUMO-HIS-DMC1-6KR (natural protein, Arabidopsis thaliana, UniProt Q39009 1-344, looked up)
chain: B1 chain with K45R, K46R, K70R, K101R, K162R, K290R
notes: DMC1, Arabidopsis thaliana, AGI At3G22880; CDS with all six lysines K45, K46, K70, K101, K162 and K290 changed to arginine, cloned into pSUMO (on pET28a); not shown: SUMO, N-terminal, kept; HIS, N-terminal, kept

binding result [3]: binds
binding result [4]: binds
B3: GST-ASK1 (natural protein, Arabidopsis thaliana, UniProt Q39255 1-160, looked up)
chain: MSAKKIVLKSSDGESFEVEEAVALESQTIAHMVEDDCVDNGVPLPNVTSKILAKVIEYCKRHVEAAASKAEAVEGAATSDDDLKAWDADFMKIDQATLFELILAANYLNIKNLLDLTCQTVADMIKGKTPEEIRTTFNIKNDFTPEEEEEVRRENQWAFE
notes: ASK1 (Arabidopsis Skp1-like1), Arabidopsis thaliana, AGI AT1G75950; CDS cloned into pGEX 4T-1; also called AT1G75950; not shown: GST, N-terminal, kept
